± gives the uncertainty stated by the source.

This series in a line: amyloid nucleation score (Sup35N fusion, yeast selection) (log enrichment); library NNK1; higher = more nucleation; inactive = no reads after selection. In outline:
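DiMSum was used to calculate nucleation scores as log enrichment of output over input reads, centred on the mode score of non-aggregating sequences. Sequences with fewer than 100 input reads were not scored. Input and output came from Illumina sequencing of plasmid inserts in psi-negative yeast expressing peptides of 20 random codons fused to Sup35N, induced 24 hours with 100 μM copper sulfate and then grown 7 days at 30°C on medium lacking adenine and uracil.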
The substance VVSLGNSSDYCHWKLILPTV returned an amyloid nucleation score of 0.151 ± 0.4.
Take SYVMGLVYLIYTCKYWFFSE: the amyloid nucleation score is -0.827 ± 1.7.
The same measure for RYYYAQEWPVALFLSRPKVP: 0.406 ± 0.63; for GRVLDGRILLPVILSVWGCS: -0.563 ± 1.1.
The figure for VKPLLIHIRALLEM is 1.55 ± 0.52.
The figure for GWNVTEIYFFMWVRITSGWM is 2.27 ± 0.19; for SSSFRHAMRPSSISQRISPC it is 0.354 ± 0.54.
WASEMRHGWRAHNIYVGEDC yielded an amyloid nucleation score of 0.937 ± 0.59.
The same measure for QYPRFHVTGTGRLCGSRMSY: -0.382 ± 0.4; for NCFRLILFVLSDHRQWCFES: -1.78 ± 1.7.
As to EIRWSHIFERWV, the amyloid nucleation score is 0.628 ± 0.38.
The figure for MLLFSSVITVMFFGTSIHDG is -0.101 ± 1.2; for KQECQYCWSG it is -1.15 ± 0.36.
The same measure for YLSFSSAHDDIEWVGISCR: “inactive”.
The substance YNLWIGLCRIMEEVILGGT showed an amyloid nucleation score of -0.863 ± 0.61.
Substance DRTRLVSHHTRIVRRWAHVY gave an amyloid nucleation score of 0.064 ± 0.65.
NGPLHSYYTVWGCMYCLLML registered an amyloid nucleation score of 3.06 ± 0.23.
The same measure for LAYSNWALSCGIHIFRVTTS: 0.792 ± 0.27; for TFISSMPNQMIFPKGGSRGC: “inactive”; for NMSCCSTPYNPWTSIVPNVM: 0.103 ± 0.39.
The same measure for THSRFKVCPVSMLCNAPQQR: 0.626 ± 1.2.
The figure for PLPVNPYPTHATIGWPRISG is -0.427 ± 0.55; for PYLTICKIDYFYYLGRDSFF it is 4.47 ± 0.055.
In turn, VFYGCVDESCDLNRLGSVSY returned an amyloid nucleation score of -0.101 ± 0.54.
YGGMDS came in with an amyloid nucleation score of 0.132 ± 0.5.
For RTMCRFPYGCMTRSYVSG, the amyloid nucleation score turned out to be 0.159 ± 0.38.
The figure for FGIPST is 1.05 ± 0.34; for GRRYCRANSWLATTSSRISL it is 2.1 ± 0.44; for GNDLNRREVELGLNSIYKSY it is 0.711 ± 0.73.
The same measure for PMTKCMLSSLGWCAHVPVRE: 0.369 ± 0.52; for VVAFYL: 1.91 ± 0.37; for HSDVHNCFLLCRCTGYCLYS: 3.96 ± 0.16.
In turn, TKSMFGTCNMFKTKVLN came in with an amyloid nucleation score of -0.101 ± 0.49.
The figure for VRLLTFDITSLFRVFYVKHR is 0.103 ± 0.67.
The figure for RREVRCSQR is -0.559 ± 0.61; for SGCCVASFYHRDSILSCEKA it is 0.446 ± 0.58; for SFDKARRARGRSLAWML it is 0.072 ± 0.54.
The same measure for CSCVVVNCNWYG: 8.609 ± 0.071.
As to NSPPSDHSLKV, the amyloid nucleation score is -0.195 ± 1.4.
In the case of LPDNSIYRYLSY, the amyloid nucleation score came out at 0.149 ± 0.42.
LKCFLINVMLLEMLPFWDRS: the amyloid nucleation score was 1.62 ± 0.55.
The same measure for MYRYLPNSTLLSRVLDTSSY: “inactive”; for RDIWMATYRWVRVYSLMWIG: 1.01 ± 0.48.
For CRLYVVGFFKKL, the amyloid nucleation score entry was “inactive”.
The figure for LWKLLAAGVGNMCDD is -0.503 ± 0.38.
The figure for WHRRLGNMFKIASRTELRMG is -0.672 ± 1.1.
The entry for VLTTGTYFATVYIK is “inactive”.
Take KVGHANVADFPIWRRNLFG: the amyloid nucleation score was -0.544 ± 0.84.
The figure for FWEYSSRNPQSHYTVLRSKV is -0.509 ± 0.32; for STNVGRILMCVQLSLWKLN it is 0.227 ± 0.29; for ISRPSSSGRLHVVMTSSNAR it is 0.421 ± 0.39.
The same measure for HWCLMGLCKLFSSARPPLKK: 0.085 ± 0.8; for SRRSYSYFGIIICVNCSDTS: 8.583 ± 0.057.
The entry for SSCVIRKCKHERQRWMS is “inactive”; for FSPRIALVFRKYQGMASQPP it is 4.45 ± 0.061.
Turning to LCQGEKISPVKQHHVYCLGE, the amyloid nucleation score is 0.649 ± 0.85.
The substance RLMSNYHEGAAHKGGKHMPW returned an amyloid nucleation score of -0.495 ± 0.65.
The figure for MRFVIQVLYTGGTKKSSHLM is 1.16 ± 0.79; for AYYSRNIIKPGKKVEVPKMG it is -1.01 ± 0.72; for MTRVCL it is -0.035 ± 0.62.
The figure for RACDNMYHYRCLLRSTEHHQ is -0.185 ± 0.22; for YSTLRGFNYVFLKYIVK it is 0.724 ± 0.54.
The figure for LVCSIMWNGVRHAPVRCKPT is -0.382 ± 0.47; for WDVIYVFFIHIYQSVGS it is -0.48 ± 0.85.
In turn, LYTHNSELNIKGSKVVHIEW returned an amyloid nucleation score of 0.489 ± 0.4.
The same measure for SGWCGSTFSCERNPTVYSSC: 1.96 ± 0.26.
The figure for YFLLACLNVS is 0.828 ± 0.26; for LWEIRILLL it is -0.994 ± 0.68; for VGIWIGVDMGIGWGRDSVYV it is 0.125 ± 0.53.
The same measure for SISNPRSLLYVSRSYNSDEF: -0.956 ± 0.8; for PSYHSRPRSPYGNIEYKEHR: 0.46 ± 0.36; for RIMGFRTFEHWIININYLLL: -0.094 ± 0.41.
In turn, WCNTMFWHS showed an amyloid nucleation score of 1.09 ± 0.22.
The substance SLFLAGIMDIRGWYVVASTP returned an amyloid nucleation score of -0.34 ± 0.54.
Turning to YSIFTIKGRDCKLFITNNVS, the amyloid nucleation score was determined as 7.468 ± 0.045.
The figure for NCYMIFVKRLPLC is 0.023 ± 0.41.
The figure for DRCNDAVGRKRRRTKMRGLY is 0.457 ± 0.45; for VRNMVFSSGRQLYMWDKLLK it is 1.82 ± 0.66.
The same measure for CPVFQHDDKDWLGVFKWLRN: -1.32 ± 2.4; for NFCEVYGANIN: “inactive”; for ASMPAFAT: 0.413 ± 0.72.
The substance GSVAFFNLNMLRVLYIIYER displayed an amyloid nucleation score of 0.369 ± 0.36.
GLTCSKAAIKRLG came in with an amyloid nucleation score of -0.367 ± 0.54.
The same measure for RYVSVTGYDAQCRYCDKGTG: -0.326 ± 0.44.
The figure for VAKVLKSSCGRYG is -0.573 ± 0.44.
The same measure for RLSTFSFMVSICTHCLLYTN: 1.06 ± 0.59.
In turn, FHVHSVLISE returned an amyloid nucleation score of -0.166 ± 0.84.
AGLITSDDMAYWIGILFCNL registered an amyloid nucleation score of 2.57 ± 0.14.
With HAKHLLRKQWLDGCA, the amyloid nucleation score result is “inactive”.
Take AWNCHKFND: the amyloid nucleation score was 0.668 ± 0.78.
The figure for LYNPFHIRESMRSRPLVRWV is -0.1 ± 0.32.
Take YVVCYFDNLFLSSISLSLRA: the amyloid nucleation score stood at 8.521 ± 0.058.
The entry for RYSLFIVSYCDGHRSSTRNM is “inactive”; for RGFNVVHGGELRRMLMTEGD it is 0.926 ± 0.43; for FLKFDTSMVVLGWTFLMESF it is -0.023 ± 0.41.
Regarding VPFLYVG, the amyloid nucleation score is -0.792 ± 0.62.
Take HQLGQYHTACHAPSARCTPL: the amyloid nucleation score was -0.221 ± 0.52.
The same measure for RGSVWATSCRIAKPIVFWGW: “inactive”; for CDIIYFACGDREV: “inactive”.
Substance YSYKCGGVRTSTSFLSMLFV registered an amyloid nucleation score of 0.811 ± 0.18.
The same measure for ICSYTSIVYLFWDDLSLSTL: 1.7 ± 0.64; for SFKPSSFKFTIT: -0.605 ± 0.41.
SLVPVYI displayed an amyloid nucleation score of 0.167 ± 0.35.
The same measure for GSMDCLYVSYLGNYENRYRG: 0.232 ± 0.79; for RGSVFPCNVQVDWLRPETRA: -0.047 ± 1.1.
The figure for DITYVYFSVAELLLMFLTLY is 1.33 ± 0.48; for FLTQPFAFIVLCGSKYTSSD it is -0.463 ± 0.48; for CFFEILLSMISTMPRNVKLR it is -0.28 ± 0.41.
Turning to YSCMGECFTC, the amyloid nucleation score stood at 7.89 ± 0.067.
Take TYLRPWPFTVLLIWRRYSCL: the amyloid nucleation score amounted to 0.244 ± 0.81.
The figure for GKISICTRISMYSQSFVWIP is -0.109 ± 0.45; for KIGRGRSNAVLLLAEDVYVG it is -0.57 ± 1.2; for EVIRLDSIFLETGVRSCFQY it is 0.041 ± 0.73.
The figure for NITFEVINQRCD is 3.38 ± 0.12; for LNNLCNGMGGL it is -0.78 ± 0.53.
The same measure for EGVQKDC: “inactive”; for LNGRYLDVLHQVIHQNVREP: 3.01 ± 0.22.
As to DNINKLSWTRSILELG, the amyloid nucleation score was -0.452 ± 0.62.
The figure for IRVINYFVWSWTLTIIADFI is -1.25 ± 2.4; for SLPQKGIHWRQYL it is 0.368 ± 0.61.
The entry for LFYDDEES is “inactive”; for CKSESRFLFAYNSLCLKSMG it is -0.043 ± 0.3; for VSFYGGFGKK it is -0.116 ± 0.64.
The same measure for RDSQMMNT: 0.312 ± 0.37.
LRSFW: the amyloid nucleation score result is “inactive”.
The figure for CMSLYRGFLTPEWNIFVWLA is 0.514 ± 0.61; for LFEGHLTSISEPGVVDRSIR it is -0.573 ± 1.7.
The figure for LFLKFGGSFAVIFWILVAAV is 0.74 ± 0.48; for VYVKYP it is -0.125 ± 0.77.
The same measure for MNMVCS: 1.15 ± 0.58; for AAFDRNSEGNAPMPVMCPCI: 0.34 ± 0.75; for FVVVVGSHLGDGFCDCWVNC: 2.03 ± 0.24.
Regarding VNVSVDFKREMRIPWLAGIC, the amyloid nucleation score is -0.651 ± 0.67.
The figure for QPKFLVCFA is 0.101 ± 0.6; for VCRPYVRLSPGGM it is -1.27 ± 2.7; for TLNHRSLCFSSVDILWVWII it is -0.533 ± 0.9.
The same measure for LFKYYNWVGTLVTYIMIYVW: -1.62 ± 0.62; for SAVVTRMGGGLKLRTWHEGN: 0.53 ± 0.55; for IGLMALLGLTRDR: 2.17 ± 0.12.

Values taken from the supplement of paper PMC12042874.
